These results are taken from PMC3782296 (Journal of molecular biology, 2011).

The data set concerns the molecule itself. Nature of the data set: cross-linking.

B1: wild-type human Tom40A lacking amino acid residues 1 to 82 (hTom40AΔ1-82) (domain or fragment, UniProt O96008 83-361, looked up)
chain: FEECHRKCKELFPIQMEGVKLTVNKGLSNHFQVNHTVALSTIGESNYHFGVTYVGTKQLSPTEAFPVLVGDMDNSGSLNAQVIHQLGPGLRSKMAIQTQQSKFVNWQVDGEYRGSDFTAAVTLGNPDVLVGSGILVAHYLQSITPCLALGGELVYHRRPGEEGTVMSLAGKYTLNNWLATVTLGQAGMHATYYHKASDQLQVGVEFEASTRMQDTSVSFGYQLDLPKANLLFKGSVDSNWIVGATLEKKLPPLPLTLALGAFLNHRKNKFQCGFGLTIG
As to B1, the “stoichiometry N” value was determined as 2.

For orientation: stoichiometry N means a count of units in the complex or per binding partner.
